Assay results reported in paper PMC10991234, “An evolved pyrrolysyl-tRNA synthetase with polysubstrate specificity expands the toolbox for engineering enzymes with incorporation of noncanonical amino acids” (Bioresources and Bioprocessing, 2023).

Assays:
Conditions in all cases: 100 mM Tris-HCl pH 8, 30°C, 1.5 µM PrCl3, 1.5 µM PQQ, 1 mM PES, 150 µM DCPIP
[1] = substrate: CO; assay: dye-linked PES/DCPIP colorimetric assay, Michaelis-Menten fit; format: biochemical, Pseudomonas putida
purified protein [2] = substrate: CC[C@@H](C)O; assay: purified protein
purified protein [3] = substrate: CC[C@H](C)O; assay: purified protein

B1: PedH (Pseudomonas putida KT2440) (protein)
chain: AVSNEEILQDPKNPQQIVTNGLGVQGQRYSPLDLLNVNNVKELRPVWAFSFGGEKQRGQQAQPLIKDGVMYLTGSYSRVFAVDARTGKKLWQYDARLPDDIRPCCDVINRGVALYGNLVFFGTLDAKLVALNKDTGKVVWSKKVADHKEGYSISAAPMIVNGKLITGVAGGEFGVVGKIQAYNPENGELLWMRPTVEGHMGYVYKDGKAIENGISGGEAGKTWPGDLWKTGGAAPWLGGYYDPETNLILFGTGNPAPWNSHLRPGDNLYSSSRLALNPDDGTIKWHFQSTPHDGWDFDGVNELISFNYKDGGKEVKAAATADRNGFFYVLDRTNGKFIRGFPFVDKITWATGLDKDGRPIYNDASRPGAPGSEAKGSSVFVAPAFLGAKNWMPMAYNKDTGLFYVPSNEWGMDIWNEGIAYKKGAAFLGAGFTIKPLNEDYIGVLRAIDPVSGKEVWRHKNYAPLWGGVLTTKGNLVFTGTPEGFLQAFNAKTGDKVWEFQTGSGVLGSPVTWEMDGEQYVSVVSGWGGAVPLWGGEVAKRVKDFNQGGMLWTFKLPKQLQQTASVKP
notes: recombinant, pET-28a in E. coli BL21(DE3), purified on Ni-NTA; PQQ and Pr3+ added
Protein B1 has a Km [1] of 1100 µM, a kcat [1] of 0.15 s⁻¹ and a Km (purified protein [2]) of 940 ± 130 µM. It also gave a kcat (purified protein [2]) of 0.42 ± 0.01 s⁻¹, a kcat/Km (purified protein [2]) of 447 M⁻¹ s⁻¹ and a Km (purified protein [3]) of 1070 ± 180 µM. It also gave a kcat (purified protein [3]) of 0.43 ± 0.01 s⁻¹ and a kcat/Km (purified protein [3]) of 402 M⁻¹ s⁻¹.
